{"source": "patent US20060217290A1", "about": "(published 2006)", "binders": {"B1": {"name": "A0^ArgA21^GlyB29^ArgB31^ArgB32^Lys-human insulin (ligand)", "chain 1": "RGIVEQCCTSICSLYQLENYCG", "chain 2": "FVNQHLCGSHLVEALYLVCGERGFFYTPRTRK", "notes": "Insulin analog; Disulfides A7-B7, A20-B19, A6-A11; also called ArgA0, GlyA21, ArgB29, ArgB31, LysB32-human insulin"}}, "key": {"human insulin receptor": {"target": "T1, human insulin receptor (human, UniProt P06213 28-1382)", "T1 construct": "whole, on cells; Assayed as membrane preparation (P1) of transfected 293EBNA cells, not as intact cells; also called IR; HIR", "assay": "competitive binding SPA, displacement of [125I] insulin from human IR membranes"}, "human IGF-1 receptor": {"target": "T2, human IGF-1 receptor (human, UniProt P08069 31-1367)", "T2 construct": "whole, on cells; Assayed as membrane preparation (P1) of transfected 293EBNA cells, not as intact cells; also called IGF-R; insulin growth factor receptor", "assay": "competitive binding SPA, displacement of [125I]IGF-1 from human IGF-1R membranes"}}, "data": [{"binder": "B1", "values": [{"measurement": "Relative IR Affinity (Mean)", "setting": "human insulin receptor", "result": "0.21 relative to recombinant human insulin"}, {"measurement": "Relative IGF1-R Affinity (Mean)", "setting": "human IGF-1 receptor", "result": "1.1 relative to recombinant human insulin"}]}]}
